The source of these data is US20260232759A1 (WISCONSIN ALUMNI RESEARCH FOUNDATION, published 2026).

In the experiment the target is SARS-CoV-2 Spike protein (SARS-CoV-2, UniProt P0DTC2 14-1273). Description: cell-based or functional assay.

No end group written: not given here. PEG‑cholesterol = not defined here

B1: D1 Q4 D32 E35 (peptide)
peptide: DISQINASVVNIEYEIKKLEEVAKKLEESLIDLQELGSGSGC(PEG‑cholesterol)
modifications: not fully specified (C-terminus); reading uncertain; also: β2- or β3-amino acids, presumably D1, Q4, D32, E35
In the case of B1, the “inhibition of S-mediated cell-cell fusion (β-Gal complementation), IC50” value was roughly 50 nM.

B2: D1 Q4 D32 Q34 (peptide)
peptide: DISQINASVVNIEYEIKKLEEVAKKLEESLIDLQELGSGSGC(PEG‑cholesterol)
modifications: not fully specified (C-terminus); reading uncertain; also: β2- or β3-amino acids, presumably D1, Q4, D32, Q34
Consider B2, for which the “inhibition of S-mediated cell-cell fusion (β-Gal complementation), IC50” value was roughly 10 nM.
